{"source": "patent US10337022B2", "about": "“Methods of increasing root biomass in plants” (Agresearch Limited, priority 2014, dated 2019)", "key": {"BZR1": {"target": "T1, BZR1 (Arabidopsis thaliana, UniProt Q8S307)", "T1 construct": "expressed in transfected cells; host or cells: Nicotiana benthamiana leaves (Agrobacterium infiltration)", "T1 sequence (Q8S307 1-336)": "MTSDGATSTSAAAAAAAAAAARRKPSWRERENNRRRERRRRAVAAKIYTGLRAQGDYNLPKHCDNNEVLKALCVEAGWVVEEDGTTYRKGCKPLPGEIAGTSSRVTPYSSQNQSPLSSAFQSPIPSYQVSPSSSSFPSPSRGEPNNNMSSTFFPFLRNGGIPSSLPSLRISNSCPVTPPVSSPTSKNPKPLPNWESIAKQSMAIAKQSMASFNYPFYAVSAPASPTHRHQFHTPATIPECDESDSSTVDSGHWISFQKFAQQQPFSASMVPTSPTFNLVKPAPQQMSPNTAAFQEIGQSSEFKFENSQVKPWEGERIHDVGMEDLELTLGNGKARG", "assay": "BiFC interaction with BZR1 in Nicotiana benthamiana leaves", "type": "cell-based", "from_the_text": "(§1) The binary BiFC-Gateway YFP vectors pDEST-VYNE(R)^GW (Venus aa 1-173) and pDEST-VYCE(R)^GW (Venus aa 156-239) with N-terminal fusions, were used to construct the following vectors; pDESTnYFP-BZR1, pDESTnYFP-NINJA, pDESTnYFP-PPD1, pDESTcYFP-BZR1, pDESTcYFP-PPD1, pDESTcYFP-PPD1Δppd, pDESTcYFP-PPD1Δtify and pDESTcYFP-PPD1Δjas*. […] Plasmids for co-immunoprecipitation: A synthesised DNA construct encoding PPD1 with a 3×c-myc C-terminal fusion was sub-cloned into pRSh1 to produce pRSh1-PPD1-3×c-myc, while the NINJA cDNA sequence was sub-cloned into pB7FWG2,0 (Karimi et al 2002, Trends Plant Sci. 7, 193-195) to construct pB7FWG2-NINJA-GFP.\n(§2) For infiltration Agrobacterium tumefaciens GV3101 strains containing the binary vectors were re-suspended from plates and prepared for transformation as described for the LUC assay. All YFP and expression strains were mixed in ratios of 1:1 (vol/vol) with the addition of strain P19 at 1/10th volume. Five leaf discs were sampled from each infiltrated leaf after 40 h. Two hours prior to sampling for microscopic fluorescence observations leaves were infiltrated with a 1 μg/ml DAPI solution to stain nuclei. YFP fluorescence and DAPI staining was detected using an Olympus Fluoview FV10i confocal laser scanning microscope. Each experiment was repeated twice."}, "ryegrass plants": {"test_system": "ryegrass plants", "assay": "Root biomass analysis of ryegrass transformants", "type": "in vivo", "conditions": "approximately 6 weeks in glasshouse", "description": "(§3) An equal number (typically 4-10) of tillers were taken from WT and ryegrass plants transformed with Arabidopsis PPD under a constitutive promoter. Tillers were planted into plastic grow bags containing potting mix and pruned to be of equal height. […] The increase in root biomass was quantified by washing the roots under running water then removing the attached above ground portion (leaves and stems) and drying the roots at 65° C. for 48 hr then weighing the dry weights (Table 2).\nas §3, with “one of three root promoters.” for “a constitutive promoter.”, “3 and Table 4)” for “2).”"}, "NINJA": {"target": "T2, NINJA (Arabidopsis thaliana, UniProt Q9SV55)", "T2 construct": "expressed in transfected cells; host or cells: Nicotiana benthamiana leaves (Agrobacterium infiltration)", "T2 sequence (Q9SV55 with tags, fused parts or gaps)": "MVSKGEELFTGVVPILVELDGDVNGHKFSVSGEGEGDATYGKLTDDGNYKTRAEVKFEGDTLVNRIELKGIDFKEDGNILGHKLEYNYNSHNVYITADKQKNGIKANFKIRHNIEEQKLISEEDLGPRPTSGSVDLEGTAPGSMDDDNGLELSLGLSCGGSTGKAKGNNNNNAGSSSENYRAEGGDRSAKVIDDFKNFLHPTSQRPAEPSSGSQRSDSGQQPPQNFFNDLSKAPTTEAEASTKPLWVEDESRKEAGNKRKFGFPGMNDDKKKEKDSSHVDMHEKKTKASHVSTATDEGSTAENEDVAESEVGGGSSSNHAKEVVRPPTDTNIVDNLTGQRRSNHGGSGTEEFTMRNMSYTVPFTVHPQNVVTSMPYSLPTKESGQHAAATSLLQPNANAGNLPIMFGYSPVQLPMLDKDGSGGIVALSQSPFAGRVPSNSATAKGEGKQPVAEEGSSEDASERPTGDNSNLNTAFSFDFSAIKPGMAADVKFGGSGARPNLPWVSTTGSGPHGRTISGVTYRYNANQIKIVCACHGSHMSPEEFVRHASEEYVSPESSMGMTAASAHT", "assay": "BiFC interaction with NINJA in Nicotiana benthamiana leaves", "type": "cell-based", "conditions": "in planta", "from_the_text": "as §1, §2"}, "[1]": {"test_system": "PEAPOD deletion mutant Δppd Arabidopsis thaliana ecotype Landsberg erecta", "assay": "Complementation of the Arabidopsis Δppd mutant leaf phenotype", "type": "in vivo", "conditions": "optimized PEAPOD coding sequence under CaMV35s promoter, seedlings (FIG. 13)", "from_the_text": "The functionality of any PEAPOD sequence can be confirmed by complementation of the Arabidopsis Δppd mutant leaf phenotype. Complementation of the Arabidopsis Δppd mutant leaf phenotype was first used to identify the Arabidopsis PPD gene (White 2006). This was seen by a restoration of the wild type flattened leaf phenotype and normal rosette shape as opposed to the domed leaf and the twisting of the rosette to a “propeller” phenotype.\nConstructs above can be transformed into Arabidopsis by the floral dip infiltration method (Clough and Bent, 1998 Plant J 16, 735-43). The Δppd line is transformed to express the PPD polypeptides by standard techniques. Transgenic plants are confirmed by standard PCR analysis techniques with a combination of transgene-specific and T-DNA primers.\nComplementation of the Δppd line to produce a wild-type leaf and rosette phenotype in T1 seedlings (the off-spring of the infiltrated plant) confirms PEAPOD functionality of the introduced gene, which can be shown in photographs."}}}
{"molecule": "Arabidopsis PPD: Arabidopsis thaliana PEAPOD 1 protein, At4g14713, SEQ ID NO: 1 (protein, listed as Arabidopsis thaliana) MDVGVSPAKSILAKPLKLLTEEDISQLTREDCRKFLKDKGMRRPSWNKSQAIQQVLSLKALYEPGDDSGAGIFRKILVSQPVNPPRVTTTLIEPSNELEACGRVSYPEDNGACHRMDSPRSAEFSGGSGHFVSEKDGHKTTISPRSPAETSELVGQMTIFYSGKVNVYDGIPPEKARSIMHFAANPIDLPENGIFASSRMISKLISKEKMMELPQKGLEKANSSRDSGMEGQANRKVSLQRYREKRKDRKFSKAKKCPGVASSSLEMFLNCQPRMKAAYSQNLGCTGSPLHSQSPESQTKSPNLSVDLNSEGI", "values": [{"measurement": "BiFC interaction with BZR1", "setting": "BZR1; fully expanded leaves, co-expression of NINJA", "result": "restored"}, {"measurement": "BiFC interaction with BZR1", "setting": "BZR1; pavement cells of immature Nicotiana benthamiana leaves", "result": "appears to interact with BZR1 in the nucleus"}, {"measurement": "root growth beyond the grow bag compared to WT plants", "setting": "ryegrass plants; constitutive promoter", "result": "increase in root biomass/growth/length/branching"}, {"measurement": "root growth beyond the grow bag compared to WT plants", "setting": "ryegrass plants; one of three root promoters", "result": "increase in root biomass/growth/length/branching"}, {"measurement": "BiFC interaction with NINJA", "setting": "NINJA", "result": "interacted with NINJA in plants"}, {"measurement": "PEAPOD functionality by complementation of Δppd mutant", "setting": "[1]", "result": "functionally equivalent"}]}
